The results in this text go back to patent publication US12679878B2, “CRF2 receptor agonists and their use in therapy” (SANOFI, priority 2020, dated 2026).

Starred links: 1 amine or outer side, 2 acyl side, 3 side chain; linkers in the order of their positions; H or OH if unused. Non-standard residues stand in square brackets, D forms with d. Groups on a side chain read outwards from the residue. No end group written: not given here. *: point of attachment. C18 diacid = O=C(O)CCCCCCCCCCCCCCCCC(=O)*; γGlu = O=C(O)[C@H](CCC(=O)[*:2])N[*:1]; Palmitoyl = CCCCCCCCCCCCCCCC(=O)*; AEEA = NCCOCCOCC(=O)O; Aib = CC(C)(N)C(=O)O

This test has as its target T1, anti-target CRF1R receptor (UniProt P34998 24-415, limits assumed).
T1 sequence (looked up): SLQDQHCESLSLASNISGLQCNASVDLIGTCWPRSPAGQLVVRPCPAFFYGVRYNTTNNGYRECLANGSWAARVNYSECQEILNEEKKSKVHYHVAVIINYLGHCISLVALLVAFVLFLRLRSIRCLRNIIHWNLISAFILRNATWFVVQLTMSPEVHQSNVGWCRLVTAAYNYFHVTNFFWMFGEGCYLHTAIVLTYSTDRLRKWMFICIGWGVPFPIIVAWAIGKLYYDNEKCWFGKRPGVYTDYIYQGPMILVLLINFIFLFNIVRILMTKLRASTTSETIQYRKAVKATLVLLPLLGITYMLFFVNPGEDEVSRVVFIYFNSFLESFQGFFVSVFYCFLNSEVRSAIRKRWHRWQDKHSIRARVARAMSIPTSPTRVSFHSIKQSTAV
As to the kind of experiment: cell-based or functional assay.

B1: peptide of SEQ ID NO: 160 (peptide)
peptide: Ac-IVLSLD[dV]PIKLK([AEEA-AEEA-γGlu-C18 diacid])QILLEQERQE[Aib]EREQAETNKQILEQV-NH2
SMILES: CC[C@H](C)[C@H](NC(C)=O)C(=O)N[C@H](C(=O)N[C@@H](CC(C)C)C(=O)N[C@@H](CO)C(=O)N[C@@H](CC(C)C)C(=O)N[C@@H](CC(=O)O)C(=O)N[C@@H](C(=O)N1CCC[C@H]1C(=O)N[C@H](C(=O)N[C@@H](CCCCN)C(=O)N[C@@H](CC(C)C)C(=O)N[C@@H](CCCCNC(=O)COCCOCCNC(=O)COCCOCCNC(=O)CC[C@H](NC(=O)CCCCCCCCCCCCCCCCC(=O)O)C(=O)O)C(=O)N[C@@H](CCC(N)=O)C(=O)N[C@H](C(=O)N[C@@H](CC(C)C)C(=O)N[C@@H](CC(C)C)C(=O)N[C@@H](CCC(=O)O)C(=O)N[C@@H](CCC(N)=O)C(=O)N[C@@H](CCC(=O)O)C(=O)N[C@@H](CCCNC(=N)N)C(=O)N[C@@H](CCC(N)=O)C(=O)N[C@@H](CCC(=O)O)C(=O)NC(C)(C)C(=O)N[C@@H](CCC(=O)O)C(=O)N[C@@H](CCCNC(=N)N)C(=O)N[C@@H](CCC(=O)O)C(=O)N[C@@H](CCC(N)=O)C(=O)N[C@@H](C)C(=O)N[C@@H](CCC(=O)O)C(=O)N[C@H](C(=O)N[C@@H](CC(N)=O)C(=O)N[C@@H](CCCCN)C(=O)N[C@@H](CCC(N)=O)C(=O)N[C@H](C(=O)N[C@@H](CC(C)C)C(=O)N[C@@H](CCC(=O)O)C(=O)N[C@@H](CCC(N)=O)C(=O)N[C@H](C(N)=O)C(C)C)[C@@H](C)CC)[C@@H](C)O)[C@@H](C)CC)[C@@H](C)CC)C(C)C)C(C)C
In the case of B1, the “EC50[nM] 0% HSA (cAMP, CRF1R-overexpression CHO cells)” value (shortened to “EC50[nM] 0% HSA”) is greater than 1000 nM and the “Emax (%) (cAMP, CRF1R-overexpression CHO cells)” value (shortened to “Emax (%)”) was determined as 20.8%.

B2: peptide of SEQ ID NO: 14 (peptide)
peptide: FTLSLDVPTKIK([γGlu-Palmitoyl])QKLLKQEKQRKQKQKAKTNAKILARV-NH2
modifications: N-terminus assumed
SMILES: CCCCCCCCCCCCCCCC(=O)N[C@@H](CCC(=O)NCCCC[C@H](NC(=O)[C@@H](NC(=O)[C@H](CCCCN)NC(=O)[C@@H](NC(=O)[C@@H]1CCCN1C(=O)[C@@H](NC(=O)[C@H](CC(=O)O)NC(=O)[C@H](CC(C)C)NC(=O)[C@H](CO)NC(=O)[C@H](CC(C)C)NC(=O)[C@@H](NC(=O)[C@@H](N)Cc1ccccc1)[C@@H](C)O)C(C)C)[C@@H](C)O)[C@@H](C)CC)C(=O)N[C@@H](CCC(N)=O)C(=O)N[C@@H](CCCCN)C(=O)N[C@@H](CC(C)C)C(=O)N[C@@H](CC(C)C)C(=O)N[C@@H](CCCCN)C(=O)N[C@@H](CCC(N)=O)C(=O)N[C@@H](CCC(=O)O)C(=O)N[C@@H](CCCCN)C(=O)N[C@@H](CCC(N)=O)C(=O)N[C@@H](CCCNC(=N)N)C(=O)N[C@@H](CCCCN)C(=O)N[C@@H](CCC(N)=O)C(=O)N[C@@H](CCCCN)C(=O)N[C@@H](CCC(N)=O)C(=O)N[C@@H](CCCCN)C(=O)N[C@@H](C)C(=O)N[C@@H](CCCCN)C(=O)N[C@H](C(=O)N[C@@H](CC(N)=O)C(=O)N[C@@H](C)C(=O)N[C@@H](CCCCN)C(=O)N[C@H](C(=O)N[C@@H](CC(C)C)C(=O)N[C@@H](C)C(=O)N[C@@H](CCCNC(=N)N)C(=O)N[C@H](C(N)=O)C(C)C)[C@@H](C)CC)[C@@H](C)O)C(=O)O
B2: the “EC50[nM] 0% HSA” value is greater than 1000 nM and the “Emax (%)” value stood at 14.1%.

B3: peptide of SEQ ID NO: 21 (peptide)
peptide: IVLSLD[dV]PTKLK([γGlu-Palmitoyl])QKLLKQERQRKE[Aib]EQAEKNKRILERV-NH2
modifications: N-terminus assumed
SMILES: CCCCCCCCCCCCCCCC(=O)N[C@@H](CCC(=O)NCCCC[C@H](NC(=O)[C@H](CC(C)C)NC(=O)[C@H](CCCCN)NC(=O)[C@@H](NC(=O)[C@@H]1CCCN1C(=O)[C@H](NC(=O)[C@H](CC(=O)O)NC(=O)[C@H](CC(C)C)NC(=O)[C@H](CO)NC(=O)[C@H](CC(C)C)NC(=O)[C@@H](NC(=O)[C@@H](N)[C@@H](C)CC)C(C)C)C(C)C)[C@@H](C)O)C(=O)N[C@@H](CCC(N)=O)C(=O)N[C@@H](CCCCN)C(=O)N[C@@H](CC(C)C)C(=O)N[C@@H](CC(C)C)C(=O)N[C@@H](CCCCN)C(=O)N[C@@H](CCC(N)=O)C(=O)N[C@@H](CCC(=O)O)C(=O)N[C@@H](CCCNC(=N)N)C(=O)N[C@@H](CCC(N)=O)C(=O)N[C@@H](CCCNC(=N)N)C(=O)N[C@@H](CCCCN)C(=O)N[C@@H](CCC(=O)O)C(=O)NC(C)(C)C(=O)N[C@@H](CCC(=O)O)C(=O)N[C@@H](CCC(N)=O)C(=O)N[C@@H](C)C(=O)N[C@@H](CCC(=O)O)C(=O)N[C@@H](CCCCN)C(=O)N[C@@H](CC(N)=O)C(=O)N[C@@H](CCCCN)C(=O)N[C@@H](CCCNC(=N)N)C(=O)N[C@H](C(=O)N[C@@H](CC(C)C)C(=O)N[C@@H](CCC(=O)O)C(=O)N[C@@H](CCCNC(=N)N)C(=O)N[C@H](C(N)=O)C(C)C)[C@@H](C)CC)C(=O)O
For the molecule B3, the “EC50[nM] 0% HSA” value amounted to 618 nM and the “Emax (%)” value was 59.2%.

For IVLSLD[dV]PTKLK([γGlu-Palmitoyl])QKLLKQERQRKEREQAEKNVRILERV-NH2 (not fully specified; printed as IVLSLDvPTKLK*QKLLKQERQRKEREQAEKNVRILERV-NH2) [peptide of SEQ ID NO: 32], the “EC50[nM] 0% HSA” value was greater than 1000 nM and the “Emax (%)” value was 27%.

B4: peptide of SEQ ID NO: 19 (peptide)
peptide: IVLSLD[dV]PTKLK([γGlu-Palmitoyl])QKLLKQERQR[Aib]EREQAEKNKRILERV-NH2
modifications: N-terminus assumed
SMILES: CCCCCCCCCCCCCCCC(=O)N[C@@H](CCC(=O)NCCCC[C@H](NC(=O)[C@H](CC(C)C)NC(=O)[C@H](CCCCN)NC(=O)[C@@H](NC(=O)[C@@H]1CCCN1C(=O)[C@H](NC(=O)[C@H](CC(=O)O)NC(=O)[C@H](CC(C)C)NC(=O)[C@H](CO)NC(=O)[C@H](CC(C)C)NC(=O)[C@@H](NC(=O)[C@@H](N)[C@@H](C)CC)C(C)C)C(C)C)[C@@H](C)O)C(=O)N[C@@H](CCC(N)=O)C(=O)N[C@@H](CCCCN)C(=O)N[C@@H](CC(C)C)C(=O)N[C@@H](CC(C)C)C(=O)N[C@@H](CCCCN)C(=O)N[C@@H](CCC(N)=O)C(=O)N[C@@H](CCC(=O)O)C(=O)N[C@@H](CCCNC(=N)N)C(=O)N[C@@H](CCC(N)=O)C(=O)N[C@@H](CCCNC(=N)N)C(=O)NC(C)(C)C(=O)N[C@@H](CCC(=O)O)C(=O)N[C@@H](CCCNC(=N)N)C(=O)N[C@@H](CCC(=O)O)C(=O)N[C@@H](CCC(N)=O)C(=O)N[C@@H](C)C(=O)N[C@@H](CCC(=O)O)C(=O)N[C@@H](CCCCN)C(=O)N[C@@H](CC(N)=O)C(=O)N[C@@H](CCCCN)C(=O)N[C@@H](CCCNC(=N)N)C(=O)N[C@H](C(=O)N[C@@H](CC(C)C)C(=O)N[C@@H](CCC(=O)O)C(=O)N[C@@H](CCCNC(=N)N)C(=O)N[C@H](C(N)=O)C(C)C)[C@@H](C)CC)C(=O)O
Turning to B4, the “EC50[nM] 0% HSA” value was found to be 571 nM and the “Emax (%)” value was 57.4%.
